Reference: paper PMC3794917

What was measured:
[1] = target: Rad51;Rad52 (Saccharomyces cerevisiae) (UniProt P06778); assay: EM; conditions: RPA pre-bound, 60 mM NaCl, Rad52 EMSA: 10 mM Tris-HCl pH 8, 5 mM MgCl2, 100 mM NaCl, 37 C, 10 min, 0.27 uM XV2, 8% native PAGE, filament assays: SEB buffer, 60 mM NaCl (or titrated) …
[2] = target: Rad51;Rad52-L264P L264P (Saccharomyces cerevisiae) (UniProt P06778); assay: EM; conditions: RPA pre-bound, 60 mM NaCl (WT Rad52 55%); Rad52 EMSA: 10 mM Tris-HCl pH 8, 5 mM MgCl2, 100 mM NaCl, 37 C, 10 min, 0.27 uM XV2, 8% native PAGE; filament assays: SEB buffer, 60 mM NaCl (or titrated) …; scale: % of complete Rad51 filaments associated with Rad52-L264P
[3] = target: Rad51;Rad52 (Saccharomyces cerevisiae) (UniProt P06778); assay: EMSA (glutaraldehyde-fixed, agarose); conditions: Rad52 EMSA: 10 mM Tris-HCl pH 8, 5 mM MgCl2, 100 mM NaCl, 37 C, 10 min, 0.27 uM XV2, 8% native PAGE, filament assays: SEB buffer, 60 mM NaCl (or titrated) …, scale: mM NaCl
[4] = target: Rad51;Rad52-L264P L264P (Saccharomyces cerevisiae) (UniProt P06778); assay: EMSA (glutaraldehyde-fixed, agarose); conditions: Rad52 EMSA: 10 mM Tris-HCl pH 8, 5 mM MgCl2, 100 mM NaCl, 37 C, 10 min, 0.27 uM XV2, 8% native PAGE, filament assays: SEB buffer, 60 mM NaCl (or titrated) …, scale: mM NaCl

Sequence of Rad51;Rad52 (Saccharomyces cerevisiae) (P06778 whole entry, looked up): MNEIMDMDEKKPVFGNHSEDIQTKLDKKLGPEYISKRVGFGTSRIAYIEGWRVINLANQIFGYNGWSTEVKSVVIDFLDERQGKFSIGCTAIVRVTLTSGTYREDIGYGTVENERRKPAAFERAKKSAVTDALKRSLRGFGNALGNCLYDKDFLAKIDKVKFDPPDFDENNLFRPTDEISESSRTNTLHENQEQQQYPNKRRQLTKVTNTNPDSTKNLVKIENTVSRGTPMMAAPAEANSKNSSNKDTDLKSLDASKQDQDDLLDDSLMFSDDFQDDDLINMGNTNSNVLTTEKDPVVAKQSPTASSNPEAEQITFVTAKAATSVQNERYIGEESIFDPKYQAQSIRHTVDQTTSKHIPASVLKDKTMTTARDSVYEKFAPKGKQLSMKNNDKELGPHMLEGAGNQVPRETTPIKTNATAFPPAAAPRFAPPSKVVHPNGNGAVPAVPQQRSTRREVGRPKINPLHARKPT
Sequence of Rad51;Rad52-L264P L264P (Saccharomyces cerevisiae) (P06778 whole entry L264P, looked up): as the sequence (P06778 whole entry, looked up) above, with L264P counted along it

400-nt ssDNA fragment
binding signal (% complete Rad51 filaments) ([1]; 55% of complete filaments carry Rad52): 48 | binding signal ([1]; scale: % of complete Rad51 filaments associated with Rad52): 55 | binding signal [2]: 74 | K half ([3]; RPA pre-bound, NaCl titration during assembly): 90 | K half [3]: 400 | K half ([4]; RPA pre-bound, NaCl added after assembly, no difference from WT): 400 | K half [4]: 90
